Consider two substances from patent US20200055914A1.

Data set [1] has as its target lectin-purified insulin receptor (isoform B) (UniProt P06213). Put plainly: receptor-binding assay with lectin-purified insulin receptor.
Data set [2] is described as follows: size-exclusion chromatography, zinc- and phenol-free (self-association control).

Regarding “Trp^B26, Orn^B29 insulin analogue (ligand)”, in data set [1], the affinity relative to human insulin was found to be 50%.
For the substance Lys^B28, Pro^B29 (Lispro) insulin, the “molecular weight by SEC” value in data set [2] is recorded as “The molecular weight (MW; or molecular mass) of the species was 3.1 kDa”.
